Measured values: patent US12115264B2, “Sterilization and filtration of peptide compositions” (3-D Matrix, Ltd., priority 2014, dated 2024)
Where no end group is shown, it is not given here.

What was measured:
Assay type in all cases: physicochemical
[1] = Rheological properties of peptide solutions at selected concentrations; conditions: for Loss Modulus (G″) / Storage Modulus (G′): at 1 Pa of oscillation stress; for Max. Viscosity (max η′): from viscosity plots at the range of measured stress
Experimental: Rheological properties were determined for a variety of peptide solutions. […] For example 2% KLD12 (SEQ ID NO:2), 2.5% KLD12 (SEQ ID NO:2), and 1.5% IEIK13 (SEQ ID NO:3) solutions have 2, 3.4, and 3.2 times higher maximum viscosities than 2.5% RADA16 (SEQ ID NO:1), respectively.

[2] = Shear flow test (rheometer DHR-1, 20 mm plates); conditions: for yield stress (shear flow test): shear rate 0.003 to 1000
Experimental: Shear flow tests were performed on peptide solutions using a rheometer (DHR-1, TA Instruments) with 20 mm plates. Results are shown in FIG. 9 for 2.5% RADA16 (SEQ ID NO:1) solutions and FIG. 10 for 1.5% IEIK13 (SEQ ID NO:3) solutions. […] That is, as shear rate increased, their viscosities were dramatically dropped. […] The yield stress was about 40 Pa for 2.5% RADA16 (SEQ ID NO:1) solution and about 60 Pa for 1.5% IEIK13 (SEQ ID NO:3) solution.

[3] = Time sweep tests (rheological strength) before and after autoclave treatment; conditions: time sweep test
Experimental: Rheological properties of certain peptide compositions were determined before and after autoclaving.

[4] = Storage modulus recovery after injection through 30-gauge needle
Experimental: RADA16 (SEQ ID NO:1) was injected through 30-gauge needle so that applied shear stress reduced stiffness of the peptides. The measurements were started 1 minute after the injection.
KLD12 (SEQ ID NO:2) was injected through 30-gauge needle so that the applied shear stress reduced stiffness of the peptides. The measurements were started 1 minute after the injection.
IEIK13 (SEQ ID NO:3) was injected through 30-gauge needle so that the applied shear stress reduced stiffness of the peptides. The measurements were started 1 minute after the injection.
The percentages of recovery back to the original storage modulus at 1 min and 20 min after injection peptide compositions through a 30 gauge needle are listed in Table 2. The recovery rate of IEIK13 (specifically, of a […]; SEQ ID NO:3) was the fastest among the peptide solutions, showing 100% recovery to the original storage modulus in 20 min. […] In some non-limiting embodiments, it may take about 12 to 48 hours for full recovery to an original modulus after passage through a needle (e.g., injection).
Rheological measurements were performed for RADA16 (SEQ ID NO:1) and IEIK13 (SEQ ID NO:3) solutions after injecting them through 30 gauge needles. […] The results are shown in FIG. 6 for RADA16 (SEQ ID NO:1), FIG. 7 for KLD12 (SEQ ID NO:2), and FIG. 8 for IEIK13 (SEQ ID NO:3).

[5] = Apparent viscosity change after passage through membrane shear-thinning unit (container-inversion test)
Description: The top row includes pictures of 2.5% KLD12 (SEQ ID NO:2). The bottom row includes pictures of 1.5% IEIK13 (SEQ ID NO:3). The solutions in the most left column stay on the top of the vials. The solutions in the most right column (after applying shear stress) have low viscosity, so that most materials are located at the bottom of vials.
To examine the effect of pore size in the shear-thinning unit on viscosity change of viscous peptide solutions, 2.5% KLD12 (SEQ ID NO:2) and 1.5% IEIK13 (SEQ ID NO:3) solutions were passed through selected pore sizes, and their apparent viscosity changes were evaluated. 2.5% KLD12 (SEQ ID NO:2) solutions passed through the shear-thinning unit with the pore sizes of 41 μm, 20 μm, and 5 μm.

[6] = 1%, 1 min after injection through 30-gauge needle
[7] = 1%, 20 min after injection through 30-gauge needle
[8] = 2.5%, 1 min after injection through 30-gauge needle
[9] = 2.5%, 20 min after injection through 30-gauge needle

Arg-Ala-Asp-Ala-Arg-Ala-Asp-Ala-Arg-Ala-Asp-Ala-Arg-Ala-Asp-Ala [RADA16]
Yield Stress ([1]; Conc. 1%): 15.9 Pa
Loss Modulus (G″) ([1]; Conc. 1%): 12 Pa
Storage Modulus (G′) ([1]; Conc. 1%): 74 Pa
Max. Viscosity (max η′) ([1]; Conc. 1%): 2.3 Pa · s
Yield Stress ([1]; Conc. 1.5%): 20.0 Pa
Loss Modulus (G″) ([1]; Conc. 1.5%): 30 Pa
Storage Modulus (G′) ([1]; Conc. 1.5%): 158 Pa
Max. Viscosity (max η′) ([1]; Conc. 1.5%): 3.4 Pa · s
Yield Stress ([1]; Conc. 2%): 31.6 Pa
Loss Modulus (G″) ([1]; Conc. 2%): 39 Pa
Storage Modulus (G′) ([1]; Conc. 2%): 217 Pa
Max. Viscosity (max η′) ([1]; Conc. 2%): 4.0 Pa · s
Yield Stress ([1]; Conc. 2.5%): 50.1 Pa
Loss Modulus (G″) ([1]; Conc. 2.5%): 53 Pa
Storage Modulus (G′) ([1]; Conc. 2.5%): 352 Pa
Max. Viscosity (max η′) ([1]; Conc. 2.5%): 5.6 Pa · s
flow behaviour with increasing shear rate ([2]; 2.5% solution): typical shear thinning properties
yield stress (shear flow test) ([2]; 2.5% solution): about 40 Pa
rheological strength after autoclaving versus non-autoclaved [3]: dramatic decrease of rheological strength
Storage modulus [4, 6]: 6.8 Pa
Storage modulus [4, 7]: 40 Pa
Storage modulus ([4]; 1%, Before injection): 74 Pa
Storage modulus [4, 8]: 67 Pa
Storage modulus [4, 9]: 196 Pa
Storage modulus ([4]; 2.5%, Before injection): 352 Pa

KLDLKLDLKLDL [KLD12, self-assembling peptide with repeats of KLDL, tested as solutions of 1 to 2.5%]
times higher maximum viscosity than 2.5% RADA16 ([1]; 2% solution): 2 times
times higher maximum viscosity than 2.5% RADA16 ([1]; 2.5% solution): 3.4 times
Yield Stress ([1]; Conc. 1%): 25.1 Pa
Loss Modulus (G″) ([1]; Conc. 1%): 25 Pa
Storage Modulus (G′) ([1]; Conc. 1%): 140 Pa
Max. Viscosity (max η′) ([1]; Conc. 1%): 2.0 Pa · s
Yield Stress ([1]; Conc. 1.5%): 39.8 Pa
Loss Modulus (G″) ([1]; Conc. 1.5%): 46 Pa
Storage Modulus (G′) ([1]; Conc. 1.5%): 292 Pa
Max. Viscosity (max η′) ([1]; Conc. 1.5%): 7.1 Pa · s
Yield Stress ([1]; Conc. 2%): 79.4 Pa
Loss Modulus (G″) ([1]; Conc. 2%): 63 Pa
Storage Modulus (G′) ([1]; Conc. 2%): 573 Pa
Max. Viscosity (max η′) ([1]; Conc. 2%): 11.0 Pa · s
Yield Stress ([1]; Conc. 2.5%): 100 Pa
Loss Modulus (G″) ([1]; Conc. 2.5%): 93 Pa
Storage Modulus (G′) ([1]; Conc. 2.5%): 846 Pa
Max. Viscosity (max η′) ([1]; Conc. 2.5%): 19.0 Pa · s
apparent viscosity change after shear-thinning unit ([5]; 2.5% solution, pore size of 120 μm): remained too viscous to flow down
apparent viscosity change after shear-thinning unit ([5]; 2.5% solution, pore sizes of 41 μm, 20 μm, and 5 μm): decreased enough to flow down
Storage modulus [4, 6]: 0.68 Pa
Storage modulus [4, 7]: 59 Pa
Storage modulus ([4]; 1%, Before injection): 140 Pa
Storage modulus [4, 8]: 57 Pa
Storage modulus [4, 9]: 196 Pa
Storage modulus ([4]; 2.5%, Before injection): 846 Pa

Ile-Glu-Ile-Lys-Ile-Glu-Ile-Lys-Ile-Glu-Ile-Lys-Ile [IEIK13]
times higher maximum viscosity than 2.5% RADA16 ([1]; 1.5% solution): 3.2 times
Yield Stress ([1]; Conc. 1%): 39.8 Pa
Loss Modulus (G″) ([1]; Conc. 1%): 77 Pa
Storage Modulus (G′) ([1]; Conc. 1%): 719 Pa
Max. Viscosity (max η′) ([1]; Conc. 1%): 12.9 Pa · s
Yield Stress ([1]; Conc. 1.5%): 50.1 Pa
Loss Modulus (G″) ([1]; Conc. 1.5%): 94 Pa
Storage Modulus (G′) ([1]; Conc. 1.5%): 1092 Pa
Max. Viscosity (max η′) ([1]; Conc. 1.5%): 18.0 Pa · s
Loss Modulus (G″) ([1]; Conc. 2%): 138 Pa
Storage Modulus (G′) ([1]; Conc. 2%): 1708 Pa
Yield Stress ([1]; Conc. 2.5%): 100 Pa
Loss Modulus (G″) ([1]; Conc. 2.5%): 174 Pa
Storage Modulus (G′) ([1]; Conc. 2.5%): 2213 Pa
Max. Viscosity (max η′) ([1]; Conc. 2.5%): 40.2 Pa · s
flow behaviour with increasing shear rate ([2]; 1.5% solution): typical shear thinning properties
yield stress (shear flow test) ([2]; 1.5% solution): about 60 Pa
apparent viscosity change after shear-thinning unit ([5]; 1.5% solution, membrane with a pore size of 5 μm): reduced significantly
rheological strength after autoclaving versus non-autoclaved [3]: almost identical rheological strength
Storage modulus [4, 8]: 632 Pa
Storage modulus [4, 9]: 2248 Pa
Storage modulus ([4]; 2.5%, Before injection): 2213 Pa
